Laboratory results reported in PMC11343135.

Columns and labels:
[1] = test system: SARS1-N/M (SUD-N/M) (SARS-CoV); assay: zone-interference gel electrophoresis
[2] = test system: SARS2-N/M (SUD-N/M) (SARS-CoV-2 (WA1)); assay: zone-interference gel electrophoresis

## BCL2 G4 quadruplex oligonucleotide
[1]
  Kd: 1.6 µM
[2]
  Kd: 4.1 µM
